# Measurements from article PMC11699347, “Heme regulates protein interactions and phosphorylation of BACH2 intrinsically disordered region in humoral response” (iScience, 2024).
# T1: His-FLAG-TBK1 (mouse, UniProt Q9WUN2 1-729)
# T1 construct: An HRV 3C protease site follows the N-terminal FLAG-8xHis tag; also called FLAG-His-TBK1; recombinant mouse His-FLAG-TBK1; source: Sf9 insect cells (baculovirus), purified (FLAG-M2 agarose, G-25 spin column); not shown: FLAG, N-terminal, kept; 8xHis, N-terminal, kept
# T1 sequence (looked up): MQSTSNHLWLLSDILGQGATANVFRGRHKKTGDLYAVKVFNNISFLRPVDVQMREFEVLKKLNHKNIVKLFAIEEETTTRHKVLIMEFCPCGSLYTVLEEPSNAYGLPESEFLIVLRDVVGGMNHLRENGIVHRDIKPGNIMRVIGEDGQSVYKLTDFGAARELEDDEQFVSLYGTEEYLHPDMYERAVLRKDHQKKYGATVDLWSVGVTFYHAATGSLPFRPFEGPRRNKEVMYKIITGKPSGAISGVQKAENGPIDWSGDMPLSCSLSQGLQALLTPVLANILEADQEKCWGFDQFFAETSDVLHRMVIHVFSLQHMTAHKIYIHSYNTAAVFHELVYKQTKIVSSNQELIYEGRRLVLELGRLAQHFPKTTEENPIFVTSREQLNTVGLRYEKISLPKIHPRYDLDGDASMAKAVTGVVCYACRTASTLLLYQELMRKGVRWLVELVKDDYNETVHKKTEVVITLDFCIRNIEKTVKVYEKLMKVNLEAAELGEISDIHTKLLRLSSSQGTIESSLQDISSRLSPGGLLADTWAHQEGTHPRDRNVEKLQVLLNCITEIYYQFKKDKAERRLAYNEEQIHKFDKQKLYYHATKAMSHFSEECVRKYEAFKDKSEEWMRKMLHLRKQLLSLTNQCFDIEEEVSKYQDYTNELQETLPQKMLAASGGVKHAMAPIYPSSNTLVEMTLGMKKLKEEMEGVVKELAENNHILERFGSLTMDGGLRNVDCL
# Experiments:
# GST-BACH2_331-839 = GST-BACH2_331-839 (UniProt P97303 331-839); experiment: EMSA; MafK presence not stated in the material; 32P-labeled ds probes, 30 min incubation, 4% polyacrylamide gel; buffer, salt, pH and temperature not stated; conditions: protein: recombinant; tags: N-terminal GST; label: 32P 5' end (PNK)
# His-FLAG-TBK1 = biological target: T1, His-FLAG-TBK1; experiment: pull-down; GST fusion on Glutathione Sepharose beads with purified His-FLAG-TBK1 or His-FLAG-DNMT1, with or without heme, 2 h at 4°C; 20 mM HEPES pH 7.0, 50 mM NaCl, 2 mM TCEP; immunoblot; conditions: both partners purified
binding result (His-FLAG-TBK1),Binder,binding result (GST-BACH2_331-839)
,Slc48a1-MARE (dsDNA) DNA 1: GCACTCCACTTCTGACTCAGCATTTTGCAGCC DNA 2: GGCTGCAAAATGCTGAGTCAGAAGTGGAGTGC,binds
binds,"GST-BACH2-IDR (domain or fragment, mouse, UniProt P97303 331-520, looked up, BACH2, mouse, intrinsically disordered region, amino acid region 331-520; Plasmid pGEX6P1-BACH2-IDR; also called recombinant BACH2-331-520 with GST kept; source: E. coli KRX, purified (Glutathione Sepharose 4B)) SRSVSSPSCLRSLFGITKGVESTGLPSTSQQPLVRSSACPFNKGISQGDLKTDYTPLAGNYGQPHVGQKDVSNFAMGSPLRGPGPETLCKQEGELDRRSVIFSASACDQPNTPVHSYSAVSNLDKDLSEPVPKSLWVGAGQSLPSSQAYSHSGLMADHLPGRIRPNTSCPVPIKVCPRSPPLETRTRTSS",
binds,"GST-BACH2-381-481 (domain or fragment, mouse, UniProt P97303 381-481, looked up, made by PCR from pGEX6P1-BACH2-IDR; Cloned into pGEX-6P-1; source: E. coli KRX, purified (Glutathione Sepharose 4B)) KTDYTPLAGNYGQPHVGQKDVSNFAMGSPLRGPGPETLCKQEGELDRRSVIFSASACDQPNTPVHSYSAVSNLDKDLSEPVPKSLWVGAGQSLPSSQAYSH",
